We go through 14 molecules from CN115197321A (UNIV SICHUAN, dated 2022).

Assay [1] addresses CD25-hIgG1Fc(人CD25胞外域的C端融合人IgG1的Fc段) (human) (UniProt P01589). Nature of the assay: ELISA, coated CD25-hIgG1Fc 1 μg/mL. A general note: An ELISA detects its analyte on a solid surface through an enzyme-linked reagent.
The target of assay [2] is T1, CD25-His(人CD25胞外域的C端融合6×His标签) (human, UniProt P01589 22-240).
T1 construct: extracellular domain; Made in-house; also called 人CD25-His
T1 sequence: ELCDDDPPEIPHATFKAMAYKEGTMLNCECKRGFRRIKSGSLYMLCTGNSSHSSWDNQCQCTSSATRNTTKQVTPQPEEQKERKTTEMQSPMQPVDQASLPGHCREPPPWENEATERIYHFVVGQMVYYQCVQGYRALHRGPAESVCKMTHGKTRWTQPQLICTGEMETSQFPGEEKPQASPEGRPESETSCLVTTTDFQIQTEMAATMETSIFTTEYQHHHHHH
The assay can be described thus: SPR (Biacore). (In general: SPR reads the build-up and loss of mass on a sensor chip optically.)

Assay [3] concerns the target T2, 人CD25 (on CD25-positive cells: SU-DHL-1, U937, NK-92, human PBMC) (human, UniProt P01589 22-272).
T2 construct: whole, on cells; Endogenous CD25 on human cells; also called IL-2Rα
T2 sequence (looked up): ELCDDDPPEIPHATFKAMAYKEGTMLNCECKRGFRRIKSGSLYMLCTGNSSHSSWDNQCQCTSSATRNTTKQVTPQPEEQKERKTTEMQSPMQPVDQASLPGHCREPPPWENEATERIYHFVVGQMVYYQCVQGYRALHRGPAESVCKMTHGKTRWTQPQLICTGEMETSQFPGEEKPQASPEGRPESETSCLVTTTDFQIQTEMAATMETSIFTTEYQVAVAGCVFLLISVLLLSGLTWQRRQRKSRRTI
Nature of the assay: flow cytometry on SU-DHL-1 and U937 cells, Figure 8. (A flow cytometer gives signals particle by particle.)

Assay [4] has as its target T1, CD25-His(人CD25胞外域的C端融合6×His标签). Nature of the assay: SPR (Biacore) binding kinetics, Figure 6.
The target in assay [5] is T3, 鼠CD25(R&D公司) (鼠 (mouse), UniProt P01590 22-236, limits assumed).
T3 construct: Bought protein
T3 sequence (looked up): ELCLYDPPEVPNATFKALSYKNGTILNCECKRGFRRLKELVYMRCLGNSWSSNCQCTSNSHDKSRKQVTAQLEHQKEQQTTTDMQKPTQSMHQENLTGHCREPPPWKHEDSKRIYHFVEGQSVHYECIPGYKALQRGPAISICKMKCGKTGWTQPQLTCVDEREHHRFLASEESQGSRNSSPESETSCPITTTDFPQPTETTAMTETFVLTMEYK
The assay can be described thus: ELISA, coated mouse CD25 50 ng/well, hybridoma supernatant.

The target in assay [6] is T1, CD25-His(人CD25胞外域的C端融合6×His标签). The assay can be described thus: SPR (Biacore). This is another data set of the same source.

Positions count from the first letter of the chain named. In names and notes the source's numbering stands. Like-named read-outs stand apart in the source and are kept apart here.

小鼠IgG (antibody): the OD450 in assay [1] is < 0.3 OD.

B1: 人源化抗体h7B7-15 (antibody, V domains shown)
VH: QVQLQESGPGLVKPSQTLSLTCAVYGYSITSDYAWNWIRQPPGKGLEWIGYINYSGSTSYNPSLKSRVTISVDTSKNQFSLKLSSVTAADTAVYYCARKGGFFDVWGQGTTVTVSS
VL: DIQMTQSPSSLSASVGDRVTITCSASQGISNYLNWYQQKPGKAPKLLIYYTSSLHSGVPSRFSGSGSGTDFTFTISSLQPEDIATYYCLQYSKLPWTFGGGTKVEIK
notes: Human IgG1κ; heavy chain 4 (IGHV4-34*09) with light chain 3 (IGKV1-33*01)
For orientation: Kd means the equilibrium constant for the complex coming apart. A lower Kd goes with a tighter complex. For orientation: koff means the first-order rate constant of dissociation. Read a low koff as slow dissociation. Broadly, the kon is the second-order rate constant of association. Low values mean slow association, high ones fast association. B1: in assay [2], the Kd turned out to be 2.33 nM, the koff came to 0.000356 s⁻¹ and the kon is 153000 M⁻¹ s⁻¹.

B2: h7B7-15Q (antibody, V domains shown)
VH: B1 VH with N53Q
VL: B1 VL
notes: Mutant of h7B7-15 in the N of the NYS motif of VH-CDR2; human IgG1κ as the parent; also called h7B7突变体 N53Q
Turning to B2, in assay [2], binding was put at a Kd of 21.1 nM, the koff turned out to be 0.00502 s⁻¹ and the kon was 238000 M⁻¹ s⁻¹.

B3: h7B7-15S (antibody, V domains shown)
VH: B1 VH with N53S
VL: B1 VL
notes: N53S mutant of h7B7-15; human IgG1κ as the parent; also called h7B7突变体 N53S
In assay [2], B3 returned a Kd of 4.83 nM, a koff of 0.000554 s⁻¹ and a kon of 115000 M⁻¹ s⁻¹.

B4: h7B7-15A (antibody, V domains shown)
VH: B1 VH with N53A
VL: B1 VL
notes: Mutant of h7B7-15 in the N of the NYS motif of VH-CDR2; human IgG1κ as the parent; also called h7B7突变体 N53A
In assay [2], B4 yielded a Kd of 8.55 nM, a koff of 0.00103 s⁻¹ and a kon of 121000 M⁻¹ s⁻¹.

B5: h7B7-15Y (antibody, V domains shown)
VH: B1 VH with N53Y
VL: B1 VL
notes: Mutant of h7B7-15 in the N of the NYS motif of VH-CDR2; human IgG1κ as the parent; also called h7B7突变体 N53Y
Consider B5, for which the binding result in assay [2] was “no binding”.

B6: 重组单克隆抗体F10-2 (antibody, V domains shown)
VH: QVQLKQSGPGLVQPSQSLSITCTVSGFSLTSYGVHWVRQSPGKGLEWLGVIWRGGSTDYNAAFMSRLSITKDNSKSQVFFKMNSLQAGDTAVYYCAKNERFYGFDYWGQGTTLTVSS
VL: DIVMTQAAFSNPVTLGTSASISCRSSKSLLHSNGITYLYWYLQKPGQSPQLLIYQMSNLASGVPDRFSSSGSGTDFTLRISRVEAEDVGVYYCAQNLELPTFGSGTKLEIK
notes: a human-mouse chimeric IgG1κ form was also made; also called 抗体F10-2(来自F10)
Consider B6, for which the binding result in assay [3] and in assay [4] was “binds” in each case.

B7: 杂交瘤抗体F10 (antibody, IgG2a, V domains shown)
VH: B6 VH
VL: B6 VL
notes: Mouse hybridoma antibody, mIgG2a; the tie to the hybridoma antibody rests on that statement
B7: the binding result in assay [5] is listed as “no binding”.

B8: hF10-2-3(BM4+BM3) (antibody, V domains shown)
VH: QVQLKQSGPGLVKPSDTLSLTCTVSGFSLTSYGVHWVRQPPGKGLEWLGVIWRGGSTDYNAAFMSRLSITKDNSKSQVSLKLSSVTAADTAVYYCAKNERFYGFDYWGQGTLVTVSS
VL: B6 VL with A7S, A8P, F9L, N11L, L15P, T17E, S18P, S104G, L108V
notes: Made as for h7B7 (human IgG1κ)
For the molecule B8, in assay [6], the affinity, expressed as Kd, was 10.5 nM; the koff came out at 0.00333 s⁻¹; the kon came out at 318000 M⁻¹ s⁻¹.

B9: hF10-2-2(BM5+BM) (antibody, V domains shown)
VH: B8 VH with Q6E, V37I, L48I
VL: B6 VL with A7S, A8P, F9L, N11L, L15P, T17E, S18P, R79K, S104G, L108V
notes: as for B8
B9: in assay [6], the binding result was “no binding”.

B10: hF10-2-1(BM4+BM) (antibody, V domains shown)
VH: B8 VH
VL: B6 VL with A7S, A8P, F9L, N11L, L15P, T17E, S18P, R79K, S104G, L108V
notes: as for B8
For B10, the binding result in assay [6] is recorded as “no binding”.

B11: hF10-2-4(BM5+BM3) (antibody, V domains shown)
VH: B8 VH with Q6E, V37I, L48I
VL: B6 VL with A7S, A8P, F9L, N11L, L15P, T17E, S18P, S104G, L108V
notes: as for B8
B11: in assay [6], the Kd was 18.1 nM, the koff is 0.00126 s⁻¹ and the kon is 69900 M⁻¹ s⁻¹.

B12: 重组单克隆抗体7B7 (antibody, V domains shown)
VH: EVQLQESGPGLVKPSQSLSLTCTVTGYSITSDYAWNWIRQFPGNKLEWMGYINYSGSTSYNPSLKSRISITRDTSKNQFFLQLNSVTTEDTATYYCARKGGFFDVWGAGTTVTVSS
VL: DIQMTQTTSSLSASLGDRVTISCSASQGISNYLNWYQQKPDGTVKLLIYYTSSLHSGVPSRFSGSGSGTDYSLTISNLEPEDIATYYCLQYSKLPWTFGGGTKLEIK
notes: a human-mouse chimeric IgG1κ form was also made; also called 抗体7B7(来自B7)
B12: the binding result in assay [3] and in assay [4] was “binds” each time.

B13: 杂交瘤抗体B7 (antibody, IgG1, V domains shown)
VH: B12 VH
VL: B12 VL
notes: Mouse hybridoma antibody, mIgG1; the tie to the hybridoma antibody rests on that statement
Take B13: in assay [5], the binding result is on record as “no binding”.
